One block for each molecule: values may come before it.
Key:
human RSPO2 = target: T1, human RSPO2 (Homo sapiens, UniProt Q6UXX9); assay: FACS binding of 130M23 and humanized 130M23 to HEK293 cells expressing FLAG-RSPO2furin-CD4TM-GFP; details: five-fold serial dilutions
T1 construct: followed by the furin-like domains of RSPO2 (aa 31-146); expressed in transfected cells; host or cells: HEK-293
Description: HEK293 cells were transiently transfected with an expression vector encoding FLAG-RSPO2furin-CD4TM-GFP. As described in Example 11, FLAG-RSPO2furin-CD4TM-GFP is a chimeric fusion protein enabling cell surface expression of the N-terminal furin-like domains of human RSPO2. FLAG-RSPO2furin-CD4TM-GFP transfected cells were incubated in the presence of anti-RSPO2 antibody 130M23 or humanized anti-RSPO2 antibody […]. Five-fold serial dilutions of each antibody were examined for their ability to bind to the RSPO2 expressing cells. The cells were stained with Phycoerythrin conjugated anti-IgG to reveal bound antibody. The cells were analyzed on a FACSCalibur instrument (BD Biosciences, San Jose, Calif.) and the data was processed using FlowJo software.

binding of RSPO1 to LGR5 = target: T2, binding of RSPO1 to LGR5 (Homo sapiens, UniProt Q2MKA7); assay: FACS: blocking of soluble RSPO1-Fc binding to LGR5 on HEK-293 cells; details: RSPO1-Fc 10 μg/ml, antibodies 10 μg/ml
T2 construct: full-length human RSPO1, RSPO2, RSPO3 and RSPO4 were ligated in-frame to a human Fc region; made in house; host or cells: RSPO1-Fc: insect cells (baculovirus); LGR5 construct: transiently transfected HEK-293
Description: HEK-293 cells were transiently transfected with the FLAG-LGR5-CD4TM-GFP construct (previously described in Example 2). After 48 hours, transfected cells were suspended in ice cold PBS containing 2% FBS and heparin and incubated on ice in the presence of RSPO1-Fc protein (10 μg/ml) and antibodies 89M2, 89M4, 89M5, 89M7, 89M19 or 89M25 (10 μg/ml). A second incubation with 100 μl PE-conjugated anti-human Fc secondary antibody was performed to detect cells bound by the RSPO1-Fc fusion protein. The cells were analyzed on a FACSCalibur instrument (BD Biosciences, San Jose, Calif.) and the data was processed using FlowJo software.

human RSPO1 [1] = target: T3, human RSPO1 (Homo sapiens, UniProt Q2MKA7); assay: FACS binding of 89M5 and humanized 89M5 to HEK293 cells expressing FLAG-RSPO1furin-CD4TM-GFP; details: five-fold serial dilutions
T3 construct: followed by the two furin-like domains of RSPO1 (aa 34-135); expressed in transfected cells; host or cells: HEK-293
Description: HEK293 cells were transiently transfected with an expression vector encoding FLAG-RSPO1furin-CD4TM-GFP. As described in Example 5, FLAG-RSPO1furin-CD4TM-GFP is a chimeric fusion protein enabling cell surface expression of the N-terminal furin-like domains of human RSPO1. FLAG-RSPO1 furin-CD4TM-GFP transfected cells were incubated in the presence of anti-RSPO1 antibody 89M5 or humanized anti-RSPO1 antibody h89M5-H2L2. Five-fold serial dilutions of each antibody were examined for their ability to bind to the RSPO1 expressing cells. The cells were stained with Phycoerythrin conjugated anti-IgG to reveal bound antibody. The cells were analyzed on a FACSCalibur instrument (BD Biosciences, San Jose, Calif.) and the data was processed using FlowJo software.

OV19 ovarian tumor cells = assay: OV19 ovarian tumor xenograft growth in NOD/SCID mice; type: in vivo; details: day 35, vs control antibody; antibodies 15 mg/kg once a week, intraperitoneal
Description: Dissociated OV19 ovarian tumor cells (1×10^5cells) were injected in the mammary fat pads of 6-8 week old NOD/SCID mice. Tumors were allowed to grow for 45 days until they reached an average volume of 134 mm^3. The mice were randomized (n=10 per group) and treated with anti-RSPO1 antibody 89M5, 89M25, taxol, a combination of 89M5 and taxol, a combination of 89M25 and taxol, or control antibody 1B7.11. Antibodies were dosed at 15 mg/kg once a week, and taxol was dosed at […] once a week. Administration of the antibodies and taxol was performed via injection into the intraperitoneal cavity. Tumor growth was monitored and tumor volumes were measured with electronic calipers at the indicated time points. Data are expressed as mean±S.E.M.

human RSPO1 [2] = target: T3, human RSPO1; assay: FACS screening of hybridoma supernatants on HEK-293 cells expressing FLAG-RSPO1furin-CD4TM-GFP; type: binding
From the text: Antibodies were generated against recombinant human RSPO1 protein amino acids 31-263 (R&D Systems, Minneapolis, Minn.). Mice (n=3) were immunized with RSPO1 protein using standard techniques. Sera from individual mice were screened against RSPO1 approximately 70 days after initial immunization using FACS analysis. The animal with the highest antibody titer was selected for final antigen boost after which spleen cells were isolated for hybridoma production. SP2/0 cells were used as fusion partners for the mouse spleen cells. Hybridoma cells were plated at 1 cell per well in 96 well plates, and the supernatants were screened against human RSPO1 by FACS analysis.
For FACS screening of anti-RSPO1 antibodies a chimeric fusion protein enabling cell surface expression of the N-terminal furin-like domains of human RSPO1 was constructed.
HEK-293 cells were transfected with FLAG-RSPOlfurin-CD4TM-GFP. After 48 hours, transfected cells were suspended in ice cold PBS containing 2% FBS and heparin and incubated on ice in the presence of 50 μl of hybridoma supernatants for 30 minutes. A second incubation with 100 μl PE-conjugated […] secondary antibody was performed to detect cells bound by antibody. Cells were incubated with an anti-FLAG antibody (Sigma-Aldrich, St. Louis, Mo.) as a positive control and an anti-PE antibody as a negative control. The cells were analyzed on a FACSCalibur instrument (BD Biosciences, San Jose, Calif.) and the data was processed using FlowJo software.

[3] = system: PN31 pancreatic tumor cells; assay: PN31 pancreatic tumor xenograft growth in NOD/SCID mice; type: in vivo; details: antibodies 15 mg/kg once a week, intraperitoneal
Description: Dissociated PN31 pancreatic tumor cells (1×10^5cells) were injected subcutaneously into the flanks of 6-8 week old NOD/SCID mice. Tumors were allowed to grow for 61 days until they reached an average volume of 120 mm^3. The mice were randomized (n=10 per group) and treated with anti-RSPO1 antibody 89M5, anti-RSPO2 antibody 130M23, gemcitabine, a combination of 89M5 and gemcitabine, a combination of 130M23 and gemcitabine, or control antibody 1B7.11. Antibodies were dosed at 15 mg/kg once a week, and gemcitabine was dosed at […] once a week. Administration of the antibodies and gemcitabine was performed via injection into the intraperitoneal cavity. Tumor growth was monitored and tumor volumes were measured with electronic calipers at specific time points. Data are expressed as mean±S.E.M.

[4] = system: RSPO1-induced β-catenin signaling; assay: TOPflash luciferase assay in HEK-293 cells, Wnt3a plus human RSPO1; type: cell-based; details: Wnt3a 5 ng/ml, RSPO1 10 ng/ml; antibodies 10 to 0.625 μg/ml
Description: HEK-293 cells were transfected with a 6×TCF-luciferase reporter vector (TOPflash, Millipore, Billerica, Mass.). After 24-48 hrs, the transfected HEK-293 cells were incubated with a combination of Wnt3a (5 ng/ml) and human RSPO1 (10 ng/ml, R&D BioSystems) in the presence of anti-RSPO1 antibodies 89M2, 89M4, 89M5, 89M7, 89M19, and 89M25, or 2 irrelevant control antibodies 254M14 and 254M26 (2-fold dilutions at 10 μg/ml to 0.625 μg/ml). The cells were incubated for 16 hours and luciferase activity was measured using Steady-Glo® Luciferase Assay System according to the manufacturer's instructions (Promega, Madison, Wis.).

T3 sequence (Q2MKA7 34-135): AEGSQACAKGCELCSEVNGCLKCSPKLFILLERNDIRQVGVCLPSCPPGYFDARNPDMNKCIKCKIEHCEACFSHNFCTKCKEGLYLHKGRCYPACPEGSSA
T1 sequence (Q6UXX9 31-146): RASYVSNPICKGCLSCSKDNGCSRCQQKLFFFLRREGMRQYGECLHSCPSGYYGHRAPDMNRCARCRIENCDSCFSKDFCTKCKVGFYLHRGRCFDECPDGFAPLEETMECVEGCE
T2 sequence (Q2MKA7 21-263): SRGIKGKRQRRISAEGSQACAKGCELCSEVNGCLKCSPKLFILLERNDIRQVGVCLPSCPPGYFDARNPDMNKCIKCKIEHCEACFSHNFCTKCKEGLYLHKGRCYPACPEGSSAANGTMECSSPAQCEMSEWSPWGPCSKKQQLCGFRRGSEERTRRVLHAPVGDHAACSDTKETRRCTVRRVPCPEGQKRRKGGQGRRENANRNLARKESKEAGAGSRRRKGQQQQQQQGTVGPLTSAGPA

binding to human RSPO2 (FACS) (human RSPO2): bind
B1: h130M23-H1L2: humanized anti-RSPO2 antibody; heavy chain SEQ ID NO:70, light chain SEQ ID NO:71 (antibody)
heavy: EVQLVESGGGLVKPGGSLRLSCAASGFTFSSYAMSWVRQAPGKGLEWVSSISSGGSTYYPDSVKGRFTISRDNAKNSLYLQMNSLRAEDTAVYYCARGGDPGVYNGDYEDAMDYWGQGTTVTVSSASTKGPSVFPLAPCSRSTSESTAALGCLVKDYFPEPVTVSWNSGALTSGVHTFPAVLQSSGLYSLSSVVTVPSSNFGTQTYTCNVDHKPSNTKVDKTVERKCCVECPPCPAPPVAGPSVFLFPPKPKDTLMISRTPEVTCVVVDVSHEDPEVQFNWYVDGVEVHNAKTKPREEQFNSTFRVVSVLTVVHQDWLNGKEYKCKVSNKGLPAPIEKTISKTKGQPREPQVYTLPPSREEMTKNQVSLTCLVKGFYPSDIAVEWESNGQPENNYKTTPPMLDSDGSFFLYSKLTVDKSRWQQGNVFSCSVMHEALHNHYTQKSLSLSPGK
light: DIQMTQSPSSLSASVGDRVTITCKASQDVSSAVAWYQQKPGKAPKLLIYWASTRHTGVPSRFSGSGSGTDFTLTISSVQAEDFATYYCQQHYSTPWTFGQGTKVEIKRTVAAPSVFIFPPSDEQLKSGTASVVCLLNNFYPREAKVQWKVDNALQSGNSQESVTEQDSKDSTYSLSNTLTLSKADYEKHKVYACEVTHQGLSSPVTKSFNRGEC
modifications: h130M23-H1L2 Heavy chain amino acid sequence; h130M23-H1L2 Light chain amino acid sequence

blocking of binding of RSPO1 to LGR5 (binding of RSPO1 to LGR5): blocked
binding to human RSPO1 (FACS) (human RSPO1 [1]): bind
binding to RSPO1 (FACS) (human RSPO1 [2]): bound
B2: 89M5: anti-RSPO1 monoclonal antibody, hybridoma ATCC PTA-11970; variable regions SEQ ID NO:10 and SEQ ID NO:11 (antibody, V domains shown)
VH: EVQLQQSGPELVKPGASVKISCKTSGYTFTGYTMHWVRQSHGKTLEWIGGINPNNGGTTYNQNFKGKATLTVEKSSTTAYLELRSLTSEDSALYYCARKEFSDGYYFFAYWGQGTLVTVSA
VL: DIVMTQSHKFMSTSVGDRVNITCKASQDVIFAVAWYQQKPGQSPKLLIYWASTRHTGVPDRFTGSVSGTDYTLTISSVQAEDLALYYCQQHYSTPWTFGGGTKLEIK
modifications: 89M5 Heavy chain variable region; 89M5 Light chain variable region
reduction in tumor growth (OV19 ovarian tumor cells): 40%
effect on tumor growth as single agents [3]: only a minimal effect
blocking of RSPO1-induced β-catenin signaling [4]: blocked

From patent publication US9644034B2, “Anti-RSPO2 antibodies and uses thereof” (OncoMed Pharmaceuticals, Inc., priority 2011, dated 2017)
